# US20090017041A1
# Experiments:
# [1] = molecular target: high molecular weight (HMW) proto-fibrillar (PF) oligomer enriched preparation of the Aβ1-42 peptide (Example 15) (human); test: ELISA, fraction coated at 2 µM; antibody 1 µg/ml
# [2] = molecular target: low molecular weight (LMW) monomeric preparation of the Aβ1-42 peptide (Example 15) (human); test: ELISA, fraction coated at 2 µM; antibody 1 µg/ml
# [3] = molecular target: high molecular weight (HMW) proto-fibrillar (PF) oligomer enriched preparation of the Aβ1-42 peptide (Example 15) (human); test: ELISA, fraction coated at 2 µM; antibody 0.5 µg/ml
# [4] = molecular target: low molecular weight (LMW) monomeric preparation of the Aβ1-42 peptide (Example 15) (human); test: ELISA, fraction coated at 2 µM; antibody 0.5 µg/ml
# [5] = molecular target: high molecular weight (HMW) proto-fibrillar (PF) oligomer enriched preparation of the Aβ1-42 peptide (Example 15) (human); test: ELISA, fraction coated at 2 µM; antibody 0.125 µg/ml
# [6] = molecular target: low molecular weight (LMW) monomeric preparation of the Aβ1-42 peptide (Example 15) (human); test: as above
# [7] = molecular target: high molecular weight (HMW) proto-fibrillar (PF) oligomer enriched preparation of the Aβ1-42 peptide (Example 15) (human); test: ELISA, fraction coated at 2 µM; antibody 0.0078 µg/ml
# [8] = molecular target: low molecular weight (LMW) monomeric preparation of the Aβ1-42 peptide (Example 15) (human); test: as above
# [9] = molecular target: high molecular weight (HMW) proto-fibrillar (PF) oligomer enriched preparation of the Aβ1-42 peptide (Example 15) (human); test: ELISA, fraction coated at 2 µM; antibody 0.0313 µg/ml
# [10] = molecular target: low molecular weight (LMW) monomeric preparation of the Aβ1-42 peptide (Example 15) (human); test: as above
# [11] = molecular target: high molecular weight (HMW) proto-fibrillar (PF) oligomer enriched preparation of the Aβ1-42 peptide (Example 15) (human); test: ELISA, fraction coated at 2 µM; antibody 0.0625 µg/ml
# [12] = molecular target: low molecular weight (LMW) monomeric preparation of the Aβ1-42 peptide (Example 15) (human); test: as above
# [13] = molecular target: monomer-enriched preparation of the Aβ1-42 peptide (Example 16); test: ELISA, fraction coated at 2.2 µM; antibody dilution 1:2 (start 0.5 µg/ml)
# [14] = molecular target: oligomer-enriched preparation of the Aβ1-42 peptide (Example 16); test: as above
# [15] = molecular target: oligomer-enriched preparation of the Aβ1-42 peptide (Example 16); test: ELISA, fraction coated at 2.2 µM; antibody dilution 1:8 (start 0.5 µg/ml)
# [16] = molecular target: monomer-enriched preparation of the Aβ1-42 peptide (Example 16); test: ELISA, fraction coated at 2.2 µM; antibody dilution 1:16 (start 0.5 µg/ml)
# [17] = molecular target: oligomer-enriched preparation of the Aβ1-42 peptide (Example 16); test: as above
# [18] = molecular target: monomer-enriched preparation of the Aβ1-42 peptide (Example 16); test: ELISA, fraction coated at 2.2 µM; assay 1; antibody dilution 1:2 (start 0.5 µg/ml)
# [19] = molecular target: oligomer-enriched preparation of the Aβ1-42 peptide (Example 16); test: as above
# [20] = molecular target: oligomer-enriched preparation of the Aβ1-42 peptide (Example 16); test: ELISA, fraction coated at 2.2 µM; assay 1; antibody dilution 1:4 (start 0.5 µg/ml)
# [21] = molecular target: monomer-enriched preparation of the Aβ1-42 peptide (Example 16); test: ELISA, fraction coated at 2.2 µM; assay 1; antibody dilution 1:8 (start 0.5 µg/ml)
# [22] = molecular target: oligomer-enriched preparation of the Aβ1-42 peptide (Example 16); test: as above
# [23] = molecular target: monomer-enriched preparation of the Aβ1-42 peptide (Example 16); test: ELISA, fraction coated at 2.2 µM; assay 2; antibody dilution 1:1 (start 0.5 µg/ml)
# [24] = molecular target: oligomer-enriched preparation of the Aβ1-42 peptide (Example 16); test: as above
# [25] = molecular target: monomer-enriched preparation of the Aβ1-42 peptide (Example 16); test: ELISA, fraction coated at 2.2 µM; assay 2; antibody dilution 1:2 (start 0.5 µg/ml)
# [26] = molecular target: oligomer-enriched preparation of the Aβ1-42 peptide (Example 16); test: as above
# [27] = molecular target: monomer-enriched preparation of the Aβ1-42 peptide (Example 16); test: ELISA, fraction coated at 2.2 µM; assay 3; antibody dilution 1:2 (start 0.5 µg/ml)
# [28] = molecular target: monomer-enriched preparation of the Aβ1-42 peptide (Example 16); test: ELISA, fraction coated at 2.2 µM; assay 1; antibody dilution 1:64 (start 0.5 µg/ml)
# [29] = molecular target: oligomer-enriched preparation of the Aβ1-42 peptide (Example 16); test: as above
# [30] = molecular target: monomer-enriched preparation of the Aβ1-42 peptide (Example 16); test: ELISA, fraction coated at 2.2 µM; assay 2; antibody dilution 1:32 (start 0.5 µg/ml)
# [31] = molecular target: oligomer-enriched preparation of the Aβ1-42 peptide (Example 16); test: as above
# [32] = molecular target: monomer-enriched preparation of the Aβ1-42 peptide (Example 16); test: ELISA, fraction coated at 2.2 µM; assay 1; antibody dilution 1:128 (start 0.5 µg/ml)
# [33] = molecular target: oligomer-enriched preparation of the Aβ1-42 peptide (Example 16); test: as above
# Sequence of monomer-enriched preparation of the Aβ1-42 peptide (Example 16) (peptide, as listed by the source): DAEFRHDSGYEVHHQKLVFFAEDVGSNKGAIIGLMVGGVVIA
# Sequence of high molecular weight (HMW) proto-fibrillar (PF) oligomer enriched preparation of the Aβ1-42 peptide (Example 15) (human) (peptide, as listed by the source): as above
# Sequence of oligomer-enriched preparation of the Aβ1-42 peptide (Example 16) (peptide, as listed by the source): as above
# Sequence of low molecular weight (LMW) monomeric preparation of the Aβ1-42 peptide (Example 15) (human) (peptide, as listed by the source): as above
substance,measurement,setting,value
6E10 control antibody,O.D. (405 nm),[1],2.55 O.D.
same,O.D. (405 nm),[2],2.68 O.D.
same,O.D. (405 nm),[3],2 O.D.
same,O.D. (405 nm),[4],2.13 O.D.
same,O.D. (405 nm),[5],0.863 O.D.
same,O.D. (405 nm),[6],0.999 O.D.
same,O.D. (405 nm),[7],0.116 O.D.
same,O.D. (405 nm),[8],0.133 O.D.
same,O.D. (405 nm),[9],0.286 O.D.
same,O.D. (405 nm),[10],0.329 O.D.
same,O.D. (405 nm),[11],0.544 O.D.
same,O.D. (405 nm),[12],0.574 O.D.
same,"O.D. (405 nm), mean of 3 assays",[13],3.59 O.D.
same,"O.D. (405 nm), mean of 3 assays",[14],3.59 O.D.
same,"O.D. (405 nm), mean of 3 assays",[15],2.98 O.D.
same,"O.D. (405 nm), mean of 3 assays",[16],1.98 O.D.
same,"O.D. (405 nm), mean of 3 assays",[17],1.92 O.D.
same,O.D. (405 nm),[18],3.3 O.D.
same,O.D. (405 nm),[19],3.39 O.D.
same,O.D. (405 nm),[20],3.1 O.D.
same,O.D. (405 nm),[21],2.67 O.D.
same,O.D. (405 nm),[22],2.73 O.D.
same,O.D. (405 nm),[23],3.77 O.D.
same,O.D. (405 nm),[24],3.67 O.D.
same,O.D. (405 nm),[25],3.48 O.D.
same,O.D. (405 nm),[26],3.55 O.D.
same,O.D. (405 nm),[27],4 O.D.
same,O.D. (405 nm),[28],0.81 O.D.
same,O.D. (405 nm),[29],0.93 O.D.
same,O.D. (405 nm),[30],1.34 O.D.
same,O.D. (405 nm),[31],1.3 O.D.
same,O.D. (405 nm),[32],0.64 O.D.
same,O.D. (405 nm),[33],0.62 O.D.
